In patent US20030069395A1 (DYAX, published 2003):

Experiments:
[1] = target: T1, human serum albumin (HSA) (human, UniProt P02768 25-609); experiment: fluorescence anisotropy; pH 7.4, 0.14 M NaCl, 0.1% caprylate
T1 construct: also called caprylate-biotinylated-HSA
Description: (§1) Affinity determinations were made by first labeling polypeptides on the C-terminal end with NHS-fluorescein. Fluorescence anisotropy measurements were performed in 384-well microplates in a volume of 10 μl in binding buffer using a Tecan Polarion fluorescence polarization plate reader. The concentration of fluorescein labeled peptide was held constant (20 nM), and the concentration of HSA was varied. For pH 6.2, 7.1, and 7.4 binding conditions, a 3 mM phosphate, 0.01% Tween-20 buffer was used. For pH 9.1 binding conditions, a 3 mM sodium bicarbonate buffer, 0.01% Tween-20 nonionic detergent buffer was used. Once NaCl was added to any of these buffers, their pH was adjusted again to achieve the original pH. The binding mixtures were equilibrated for 10 minutes in the microplate at 30° C. prior to performing the measurement. The observed change in anisotropy was fit to the equation below via nonlinear regression to obtain the apparent KD. This equation assumes that the peptide and HSA form a reversible complex with 1:1 stoichiometry.
Once all the positive phage isolates were sequenced, peptides corresponding to the display peptide were synthesized. A small amount of constant phage sequence surrounding each varied amino acid sequence region was retained and either a -GGGK-NH₂ (SEQ ID NO: 24) amino acid sequence or -X-K-NH₂ C-terminal tail was added to each peptide, where X is 6-aminohexanoic acid and K-NH₂ is an amidated terminal lysine residue. The constant phage sequence was retained because these residues can often play a role in target binding. To determine its affinity for HSA , each peptide was labeled with fluorescein on the C-terminal lysine side chain.

[2] = target: T2, bovine serum albumin (BSA) (Bovine, UniProt P02769 25-607); experiment: fluorescence anisotropy; 3 mM phosphate, pH 6.2, 0 M NaCl
goat serum albumin (GSA) [3] = target: T3, goat serum albumin (GSA) (Goat); experiment: as above
T3 sequence (P85295 whole entry, looked up): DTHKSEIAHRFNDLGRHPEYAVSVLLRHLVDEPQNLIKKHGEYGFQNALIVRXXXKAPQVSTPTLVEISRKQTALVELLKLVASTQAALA

[4] = target: T4, murine serum albumin (MSA) (Mouse, UniProt P07724 25-608); experiment: as above
T4 construct: also called mouse serum albumin; Mouse

pig serum albumin [5] = target: T5, pig serum albumin (Pig, UniProt P08835 25-607); experiment: as above
[6] = target: T1, human serum albumin (HSA); experiment: as above
rhesus serum albumin [7] = target: T6, rhesus serum albumin (Rhesus, UniProt Q28522 17-600); experiment: as above
chicken ovalbumin [8] = target: T7, chicken ovalbumin (Chicken, UniProt P01012 2-386); experiment: fluorescence anisotropy; 3 mM phosphate, pH 6.2, 0 M NaCl; negative control
T7 construct: Negative control; also called Chicken (egg)
T7 sequence (looked up): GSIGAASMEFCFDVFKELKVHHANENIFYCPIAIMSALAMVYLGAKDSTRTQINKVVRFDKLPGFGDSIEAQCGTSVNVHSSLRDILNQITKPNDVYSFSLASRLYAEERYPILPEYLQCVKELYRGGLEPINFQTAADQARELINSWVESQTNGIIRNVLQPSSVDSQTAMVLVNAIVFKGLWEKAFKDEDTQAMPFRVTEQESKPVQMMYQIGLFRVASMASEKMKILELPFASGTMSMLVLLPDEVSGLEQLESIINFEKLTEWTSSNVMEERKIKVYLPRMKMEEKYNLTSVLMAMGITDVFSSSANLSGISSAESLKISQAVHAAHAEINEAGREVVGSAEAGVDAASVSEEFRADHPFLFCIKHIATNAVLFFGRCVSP

chicken ovalbumin [9] = target: T7, chicken ovalbumin; experiment: fluorescence anisotropy; PBS, pH 7.4, 0.14 M NaCl; negative control
[10] = target: T1, human serum albumin (HSA); experiment: fluorescence anisotropy; pH 6.2, 10 mM NaCl
Description: as §1

[11] = target: T1, human serum albumin (HSA); experiment: fluorescence anisotropy; pH 6.2, 0.14 M NaCl, no caprylate
Description: as §1

rat serum albumin = rat serum albumin (Rat, UniProt P02770 25-608); experiment: fluorescence anisotropy; PBS, pH 7.4, 0.14 M NaCl
[12] = target: T2, bovine serum albumin (BSA); experiment: fluorescence anisotropy; PBS, pH 7.4, 0.14 M NaCl
goat serum albumin (GSA) [13] = target: T3, goat serum albumin (GSA); experiment: fluorescence anisotropy; PBS, pH 7.4, 0.14 M NaCl
[14] = target: T4, murine serum albumin (MSA); experiment: fluorescence anisotropy; PBS, pH 7.4, 0.14 M NaCl
pig serum albumin [15] = target: T5, pig serum albumin; experiment: fluorescence anisotropy; PBS, pH 7.4, 0.14 M NaCl
[16] = target: T1, human serum albumin (HSA); experiment: fluorescence anisotropy; PBS, pH 7.4, 0.14 M NaCl
rhesus serum albumin [17] = target: T6, rhesus serum albumin; experiment: fluorescence anisotropy; PBS, pH 7.4, 0.14 M NaCl
[18] = target: T1, human serum albumin (HSA); experiment: fluorescence anisotropy; pH 6.2, no NaCl, no caprylate
Description: as §1

[19] = target: T1, human serum albumin (HSA); experiment: fluorescence anisotropy; pH 7.4, 0.14 M NaCl, no caprylate
Description: as §1

T6 sequence (Q28522 17-600 limits assumed): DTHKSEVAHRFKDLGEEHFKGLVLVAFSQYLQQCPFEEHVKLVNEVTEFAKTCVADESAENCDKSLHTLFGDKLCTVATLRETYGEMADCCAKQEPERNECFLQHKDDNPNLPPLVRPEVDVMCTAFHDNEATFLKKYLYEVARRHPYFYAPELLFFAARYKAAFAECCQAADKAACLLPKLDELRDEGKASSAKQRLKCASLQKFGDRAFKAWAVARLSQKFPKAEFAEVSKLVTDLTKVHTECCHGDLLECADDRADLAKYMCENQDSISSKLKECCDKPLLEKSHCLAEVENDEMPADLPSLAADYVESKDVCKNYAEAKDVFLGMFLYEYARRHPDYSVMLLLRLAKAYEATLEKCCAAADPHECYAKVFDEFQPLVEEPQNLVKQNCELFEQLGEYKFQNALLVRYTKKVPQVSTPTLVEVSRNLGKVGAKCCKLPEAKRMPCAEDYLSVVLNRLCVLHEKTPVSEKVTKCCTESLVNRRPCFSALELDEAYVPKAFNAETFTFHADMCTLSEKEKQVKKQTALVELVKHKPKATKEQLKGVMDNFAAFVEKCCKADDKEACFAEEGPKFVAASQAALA
T4 sequence (P07724 25-608 limits assumed): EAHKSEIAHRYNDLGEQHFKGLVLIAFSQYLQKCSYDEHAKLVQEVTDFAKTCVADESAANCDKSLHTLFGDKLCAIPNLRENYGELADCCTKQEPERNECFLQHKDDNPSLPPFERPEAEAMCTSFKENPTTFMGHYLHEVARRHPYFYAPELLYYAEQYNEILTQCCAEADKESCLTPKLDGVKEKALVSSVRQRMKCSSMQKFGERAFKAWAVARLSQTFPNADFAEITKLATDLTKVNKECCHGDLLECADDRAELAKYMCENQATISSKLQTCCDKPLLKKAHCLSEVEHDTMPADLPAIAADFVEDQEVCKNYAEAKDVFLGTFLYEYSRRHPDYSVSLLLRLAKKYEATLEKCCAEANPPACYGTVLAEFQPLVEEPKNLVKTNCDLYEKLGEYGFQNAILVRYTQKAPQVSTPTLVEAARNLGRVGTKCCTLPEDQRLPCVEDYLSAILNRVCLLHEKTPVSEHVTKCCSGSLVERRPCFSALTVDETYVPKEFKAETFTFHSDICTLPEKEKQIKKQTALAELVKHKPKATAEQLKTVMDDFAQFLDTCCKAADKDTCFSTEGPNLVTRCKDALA
T2 sequence (P02769 25-607 limits assumed): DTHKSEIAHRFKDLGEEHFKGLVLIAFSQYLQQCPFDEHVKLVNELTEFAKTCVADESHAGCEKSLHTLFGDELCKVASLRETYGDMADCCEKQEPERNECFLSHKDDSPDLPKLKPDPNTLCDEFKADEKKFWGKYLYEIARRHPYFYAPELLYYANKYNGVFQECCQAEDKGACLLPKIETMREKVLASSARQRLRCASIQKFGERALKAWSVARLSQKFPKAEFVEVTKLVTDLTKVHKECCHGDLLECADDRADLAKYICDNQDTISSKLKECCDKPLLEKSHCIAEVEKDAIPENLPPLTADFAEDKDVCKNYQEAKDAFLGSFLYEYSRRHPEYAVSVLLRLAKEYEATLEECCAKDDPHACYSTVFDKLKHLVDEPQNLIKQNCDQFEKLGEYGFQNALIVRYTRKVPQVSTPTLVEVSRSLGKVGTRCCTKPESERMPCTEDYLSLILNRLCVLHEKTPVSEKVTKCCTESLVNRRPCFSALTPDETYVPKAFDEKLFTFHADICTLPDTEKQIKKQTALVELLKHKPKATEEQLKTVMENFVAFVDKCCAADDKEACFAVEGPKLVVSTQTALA
T5 sequence (P08835 25-607 limits assumed): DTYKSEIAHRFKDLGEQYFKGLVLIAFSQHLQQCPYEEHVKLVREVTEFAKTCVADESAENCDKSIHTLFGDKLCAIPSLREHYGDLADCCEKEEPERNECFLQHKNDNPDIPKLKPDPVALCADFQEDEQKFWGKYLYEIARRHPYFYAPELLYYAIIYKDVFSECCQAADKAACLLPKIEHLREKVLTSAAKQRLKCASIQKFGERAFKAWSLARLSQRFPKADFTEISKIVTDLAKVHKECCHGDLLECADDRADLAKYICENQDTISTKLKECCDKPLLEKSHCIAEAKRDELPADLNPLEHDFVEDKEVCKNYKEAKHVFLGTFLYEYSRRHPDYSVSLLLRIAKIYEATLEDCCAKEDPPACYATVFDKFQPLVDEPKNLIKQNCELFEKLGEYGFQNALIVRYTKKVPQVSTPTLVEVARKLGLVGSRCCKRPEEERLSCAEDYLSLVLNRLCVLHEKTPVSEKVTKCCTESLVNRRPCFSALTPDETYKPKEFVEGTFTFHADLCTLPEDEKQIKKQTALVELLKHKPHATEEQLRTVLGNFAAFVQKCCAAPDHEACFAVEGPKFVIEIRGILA
Sequence of rat serum albumin (P02770 25-608 limits assumed): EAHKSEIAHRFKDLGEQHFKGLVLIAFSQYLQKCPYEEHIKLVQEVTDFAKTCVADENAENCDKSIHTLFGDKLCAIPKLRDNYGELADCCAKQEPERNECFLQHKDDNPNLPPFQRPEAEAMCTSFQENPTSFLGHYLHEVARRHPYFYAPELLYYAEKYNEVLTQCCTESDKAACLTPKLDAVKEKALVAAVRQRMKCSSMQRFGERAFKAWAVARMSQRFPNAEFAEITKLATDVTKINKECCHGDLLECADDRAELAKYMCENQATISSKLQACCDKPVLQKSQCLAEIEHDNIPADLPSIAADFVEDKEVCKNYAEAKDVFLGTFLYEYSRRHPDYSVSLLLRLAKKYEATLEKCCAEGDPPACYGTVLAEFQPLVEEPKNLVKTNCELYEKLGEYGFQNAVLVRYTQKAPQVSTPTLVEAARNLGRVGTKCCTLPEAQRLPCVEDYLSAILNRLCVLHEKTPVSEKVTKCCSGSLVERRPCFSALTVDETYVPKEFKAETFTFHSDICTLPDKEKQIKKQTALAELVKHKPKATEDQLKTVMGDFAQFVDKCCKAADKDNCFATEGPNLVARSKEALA

B1: DX-321, Ac-AEGTGDRNMCKFSWIRSPAFCARADPE-X-K-NH2 (peptide)
peptide: AEGTGDRNMCKFSWIRSPAFCARADPEXK
modifications: N-terminal acetyl; X = 6-aminohexanoic acid before the C-terminal Lys; C-terminal amide; C-terminal Lys side chain carries fluorescein (anisotropy) or is coupled to NHS-Sepharose
Kd [1]: 75 µM | Kd [2]: 21 µM | Kd (goat serum albumin (GSA) [3]): 95 µM | Kd [4]: > 200 µM | Kd (pig serum albumin [5]): 21 µM | Kd [6]: 0.9 µM | Kd (rhesus serum albumin [7]): 38 µM | Kd (chicken ovalbumin [8]): > 200 µM | Kd (chicken ovalbumin [9]): > 200 µM | Kd [10]: ~9 µM | Kd [11]: 9 µM | Kd (rat serum albumin): 117 µM | Kd [12]: > 200 µM | Kd (goat serum albumin (GSA) [13]): 83 µM | Kd [14]: > 200 µM | Kd (pig serum albumin [15]): > 200 µM | Kd [16]: 84 µM | Kd (rhesus serum albumin [17]): 82 µM | Kd [18]: 0.9 µM | Kd [19]: 84 µM
